The target in this test is human erythrocyte spectrin (heterodimer of α and β chains) (human) (UniProt P02549). Kind of test: single-particle fluorescence imaging. Conditions: remark: other sources report otherwise.

Take “human erythrocyte spectrin (heterodimer of α and β chains), P02549 1-2419; P11277 1-2137”: the percent of spots in the second peak (tetramers) came out at 40% and the percent of the total spectrin in the second peak (tetramers) is 59%.
